Patent publication WO2010029497A1 (dated 2010)
Where a chain is given by its changes, count along the chain named. Numbers in names are those of the source.

Tests used:
NT3 = test: cell-based or functional assay
human NGF [1] = target: T1, human NGF (human, UniProt P01138 122-241); test: cell-based or functional assay
human NGF [2] = target: T1, human NGF; test: SPR (BIAcore 3000), human NGF immobilised on CM5 chip, Fab injected
human NGF [3] = target: T1, human NGF; test: SPR (BIAcore), 100 RU human NGF on CM5 chip, Fab injected 2 min, 1800 s dissociation
human NGF [4] = target: T1, human NGF; test: SPR (BIAcore 3000), human NGF immobilised on CM5 chip
rat NGF = rat NGF (rat, UniProt P25427 122-241); test: cell-based or functional assay
Sequence of rat NGF (P25427 122-241 limits assumed): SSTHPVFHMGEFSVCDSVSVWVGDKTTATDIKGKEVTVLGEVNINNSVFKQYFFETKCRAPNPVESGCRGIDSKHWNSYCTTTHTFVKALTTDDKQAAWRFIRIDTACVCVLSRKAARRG

human NGF [5] = target: T1, human NGF; test: summary sentence of the binding properties (BIAcore); its table is not reproduced in this copy
human NGF [6] = target: T1, human NGF; test: SPR (BIAcore) screening assay, human NGF on chip, Fab from small culture lysates
human NGF [7] = target: T1, human NGF; test: SPR (BIAcore), human NGF immobilised on CM5 chip

T1 sequence (P01138 122-241 limits assumed): as the sequence (P25427 122-241 limits assumed) above, with T3S, V6I, M9R, T37M, A60D, E65D, T92M, D94G, A117V, G120A counted along it
Sequence of NT3 (P20783 139-257): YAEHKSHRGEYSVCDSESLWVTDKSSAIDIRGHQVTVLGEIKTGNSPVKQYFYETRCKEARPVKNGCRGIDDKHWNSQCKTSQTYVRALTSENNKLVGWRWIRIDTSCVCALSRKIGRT

## antibody E3 (full antibody)
NT3
  inhibition of survival of trigeminal neurons promoted by NT3: > 200 nM

## Fab fragment of mouse anti-NGF monoclonal antibody 911
Human NGF [1]
  concentration that totally blocked NGF-elicited survival of trigeminal neurons: 20 nM
Human NGF [2]
  Kd: 10 nM
Human NGF [3]
  Kd: 3.7 nM
  koff: 8.4e-05 s⁻¹
  kon: 22000 M⁻¹ s⁻¹

B1: 8L2-4D5 (CDR-grafted antibody, the template) (Fab, V domains shown)
VH: QVQLQESGPGLVKPSETLSLTCTVSGFSLIGYDINWIRQPPGKGLEWIGMIWGDGTTDYNSALKSRVTISVDTSKNQFSLKLSSVTAADTAVYYCARGGYYYGTSYYFDYWGQGTLVTVS
VL: DIQMTQSPSSLSASVGDRVTITCRASQDISNHLNWYQQKPGKAPKLLIYYISRFHSGVPSRFSGSGSGTDFTFTISSLQPEDIATYYCQQSKTLPYTFGQGTKLEIKR
notes: expressed in E. coli with human kappa constant domain (GenBank CAA09181) and CH1 of human IgG2a (P01859)
Human NGF [4]
  Kd: ~38 nM

B2: Fab E3 (Fab, V domains shown)
VH: B1 VH with I34L, M50I, L63V, V71K, Y101W, G103A
VL: B1 VL with D28S, H32N, I51T, S91E, K92H
notes: Fab made in HEK293 cells, purified on Ni-NTA; also called 3E; Fab 3E
Human NGF [1]
  IC50, inhibition of human NGF-dependent survival of mouse E13.5 trigeminal neurons, 1.5 pM human NGF: ~1.2 pM
  IC50, inhibition of human NGF-dependent survival of mouse E13.5 trigeminal neurons, 15 pM human NGF: ~21 pM
Rat NGF
  IC50, inhibition of rat NGF-dependent survival of mouse E13.5 trigeminal neurons, 1.5 pM rat NGF: ~1.3 pM
  IC50, inhibition of rat NGF-dependent survival of mouse E13.5 trigeminal neurons, 15 pM rat NGF: ~31.6 pM
Human NGF [3]
  Kd: ~0.07 nM
  koff: ~4.2e-05 s⁻¹
  kon: ~600000 M⁻¹ s⁻¹
Human NGF [5]
  fold higher binding affinity than parent mouse antibody 911: ~50 fold

B3: 8L2-6D5 (CDR-grafted antibody with the framework mutation V71K) (Fab, V domains shown)
VH: B1 VH with V71K
VL: B1 VL
notes: Fab with human CH1 (IgG2a) and kappa constant domains, his tag at the C terminus of the heavy chain; also called clone 8L2-6D5; Fab 8L2-6D5
Human NGF [2]
  Kd: ~15 nM
Human NGF [6]
  koff: 0.001 s⁻¹

B4: Fab 3C (Fab, V domains shown)
VH: B1 VH with I34L, M50I, L63V, V71K, Y101W, G103A
VL: B1 VL with D28S, H32N, I51T, S91E, K92R
notes: Fab from HEK293 cells
Human NGF [3]
  Kd: ~0.35 nM

B5: H19-L129 (Fab, V domains shown)
VH: B1 VH with I34L, M50I, L63V, V71K
VL: B1 VL with D28S, H32N, I51T
notes: carries I34L, M50I, L63V (heavy) and D28S, H32N, I51T (light) with the grafted H3 and L3 CDRs, so it is E3 without Y101W, G103A, S91E, K92H; Fab with human CH1 (IgG2a) and kappa constant domains; also called Fab H19-L129; combined clone H19-L129
Human NGF [7]
  Kd: ~1 nM
